In article PMC4161250:

Substrate: O=[N+]([O-])c1ccc(OP(=O)(O)O)cc1
Assay: purified protein
Conditions: 2 mM Mn2+, 50 mM Tris-HCl pH 8.0, 37 °C

B1: StpA (Enterococcus faecium DO) (protein)
chain: MQIEYQSDVGRRRNTNQDYASVFTSRSGLKLAVLADGMGGHRAGDIASQMAVTNLGEAWEKQEAVDDEKIAQWFIQSIQEENMLIYQRGQEQPEYNGMGTTIVAAALSDDWFTIANVGDSRAYLIREDKIMQLTEDHSLVNELVKSGEISEEMAVNHPRKNILTRSVGMPGTVEVDVSTHLWQLKDRLLLCSDGLTNMLSEEEIGTIINQEGPLSHKVTELIDRANEAGGADNITVLLIEYKEDSV
B1 was tested, and the Km was 660 ± 90 µM, the kcat was 1,200 ± 100 min^-1 and the kcat/Km was 30000 ± 4830 M⁻¹ s⁻¹.
